Consider one molecule from publication PMC4706430, “In Vitro Mode of Action and Anti-thrombotic Activity of Boophilin, a Multifunctional Kunitz Protease Inhibitor from the Midgut of a Tick Vector of Babesiosis, Rhipicephalus microplus” (PLoS Neglected Tropical Diseases, 2016).

Assay [1] concerns the target T1, FXIa (human, UniProt P03951 19-387; P03951 388-625).
T1 construct: coagulation factor XIa heavy chain; coagulation factor XIa light (catalytic) chain; for the Enzyme Research Laboratories FXIa no species is printed; also called Factor XIa; source: bought: Enzyme Research Laboratories (reagents list); bought: Molecular Innovations (protease screen); copies: 2 + 2
Kind of assay: enzyme inhibition kinetics (chromogenic substrate hydrolysis); apparent Ki from Vs/Vo against Boophilin concentration (0-640 nM); FXIa (10 nM) pre-incubated 1 hour with Boophilin, then S2366 (250 μM); TBS-BSA pH 7.4. Particulars: both partners purified.

Assay [2] concerns the target T2, α-thrombin (human, UniProt P00734 364-622). Kind of assay: enzyme inhibition kinetics (chromogenic substrate hydrolysis); Lineweaver-Burk plots and re-plot of the slope against Boophilin concentration; Boophilin (0-1280 nM) with S2238 or S2366 (125-750 μM), then thrombin (0.2 nM) or FXIa (0.5 nM); TBS-BSA pH 7.4. Conditions: both partners purified.
Assay [3] addresses T1, FXIa. The assay is described as above. Conditions: both partners purified.
Assay [4] has as its target T1, FXIa. As to the kind of experiment: SPR; Biacore T100; FXIa immobilised on CM5 by amine coupling (1280.4 RU); Boophilin (31.25-500 nM) injected 120 s, dissociation 600 s, 30 μL/minute, 25°C, HBS-P pH 7.4; global 1:1 Langmuir fit. Particulars: both partners purified. (In SPR one partner is held on a chip, and binding of the other changes the refractive index at the surface.)

Assay [5] concerns the target T2, α-thrombin. Kind of assay: SPR; Biacore T100; Boophilin immobilised on CM5 by amine coupling (301.4 RU); thrombin (15.625-500 nM) injected 90 s, dissociation 180 s, 30 μL/minute, 25°C, HBS-P pH 7.4; global 1:1 Langmuir fit; α-thrombin, γ-thrombin and PPACK-thrombin also tested at 1 μM as analytes. Conditions: both partners purified.
Assay [6] deals with T2, α-thrombin. Kind of assay: cell-based or functional assay.
Another assay addresses kallikrein (human, UniProt P03952 20-638). As to the kind of experiment: cell-based or functional assay.

T1 sequence (P03951 19-387, chain 1 of 2): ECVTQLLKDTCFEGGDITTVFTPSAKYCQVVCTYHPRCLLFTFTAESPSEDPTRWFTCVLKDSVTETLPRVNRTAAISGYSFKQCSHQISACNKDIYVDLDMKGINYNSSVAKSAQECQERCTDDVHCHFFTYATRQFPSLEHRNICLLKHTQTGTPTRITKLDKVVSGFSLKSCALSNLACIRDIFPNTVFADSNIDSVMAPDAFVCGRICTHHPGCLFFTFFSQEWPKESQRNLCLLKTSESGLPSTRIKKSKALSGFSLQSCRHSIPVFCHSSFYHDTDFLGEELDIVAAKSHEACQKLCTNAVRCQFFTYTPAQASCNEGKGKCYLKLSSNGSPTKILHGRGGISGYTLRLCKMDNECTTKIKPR
T1 sequence (P03951 388-625, chain 2 of 2): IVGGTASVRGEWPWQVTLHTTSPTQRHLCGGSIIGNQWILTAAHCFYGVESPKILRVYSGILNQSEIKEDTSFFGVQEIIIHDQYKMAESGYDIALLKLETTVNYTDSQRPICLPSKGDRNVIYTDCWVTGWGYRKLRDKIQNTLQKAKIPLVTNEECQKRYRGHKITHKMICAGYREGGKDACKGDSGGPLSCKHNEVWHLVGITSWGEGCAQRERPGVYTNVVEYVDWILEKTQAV
Sequence of kallikrein (P03952 20-638): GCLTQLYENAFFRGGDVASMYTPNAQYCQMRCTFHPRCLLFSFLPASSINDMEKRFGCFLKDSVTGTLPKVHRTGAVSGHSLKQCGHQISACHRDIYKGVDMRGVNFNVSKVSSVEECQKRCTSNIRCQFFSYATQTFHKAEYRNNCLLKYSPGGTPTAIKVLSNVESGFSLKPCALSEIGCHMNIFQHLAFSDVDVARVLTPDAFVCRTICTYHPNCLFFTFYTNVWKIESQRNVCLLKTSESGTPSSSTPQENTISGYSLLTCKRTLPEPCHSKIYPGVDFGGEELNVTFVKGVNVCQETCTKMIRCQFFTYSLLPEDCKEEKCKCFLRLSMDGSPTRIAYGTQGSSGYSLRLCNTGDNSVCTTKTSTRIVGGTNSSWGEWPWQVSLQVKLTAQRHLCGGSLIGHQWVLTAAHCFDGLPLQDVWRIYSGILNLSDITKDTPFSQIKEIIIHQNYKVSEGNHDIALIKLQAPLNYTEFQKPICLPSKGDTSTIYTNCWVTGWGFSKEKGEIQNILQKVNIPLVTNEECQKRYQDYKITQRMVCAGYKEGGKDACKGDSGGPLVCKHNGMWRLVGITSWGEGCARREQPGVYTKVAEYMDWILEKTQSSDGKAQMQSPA

B1: Boophilin (natural protein)
chain: QRNGFCRLPADEGICKALIPRFYFNTETGKCTMFSYGGCGGNENNFETIEDCQKACGAPERVSDFEGADFKTGCEPAADSGSCAGQLERWFYNVRSGECETFVYGGCGGNDNNYESEEECELVCKNM
modifications: N-terminus blocked (Edman degradation)
As usually defined, the Kd is the concentration at which binding is half-saturated. High values mean weaker binding, low ones tighter binding. One may read the koff as the rate constant with which the complex falls apart. A high value points to fast dissociation. By kon is commonly meant a measure of how fast the partners come together. A higher kon goes with faster complex formation. In the case of B1, the Ki with FXIa [1] is ~82 nM; in the assay with α-thrombin [2], 101 nM; with FXIa [3], 115 nM. Further, the figures for the Kd in the assay with FXIa [4] and with α-thrombin [5] were ~125 nM and 116 nM, respectively. This molecule also had a koff with α-thrombin [5] of 0.36 s⁻¹. The same molecule came in with a kon with α-thrombin [5] of 3e+06 M⁻¹ s⁻¹. Moreover, in the assay with α-thrombin [6], the “IC50 of residual amidolytic activity (S-2238) of clot-bound thrombin (Fig 2H)” value was ~1000 nM. Moreover, the “IC50 of thrombin-mediated fibrin formation (thrombin 200 nM, fibrinogen 2 mg/mL; absorbance at 600 nm) (Fig 2G)” value in the assay with α-thrombin [6] was ~1000 nM. Besides, the “IC50 of the amidolytic activity of kallikrein (2 nM) on S2302, Boophilin 0-3200 nM, Vs/Vo (Fig 3G)” value in the assay with kallikrein was found to be 919000 nM.
